B1: chimerized TCR construct 11C/34 (TCR, V domains shown)
V domain 1: EPEVTQTPSHQVTQMGQEVILRCVPISNHLYFYWYRQILGQKVEFLVSFYNNEISEKSEIFDDQFSVERPDGSNFTLKIRSTKLEDSAMYFCASSLRLGWIPGNEQFFGPGTRLTVLE
V domain 2: AQSVTQPDIHITVSEGASLELRCNYSYGATPYLFWYVQSPGQGLQLLLKYFSGDTLVQGIKGFEAEFKRSQSSFNLRKPSVHWSDAAEYFCAVGFMDSSYKLIFGSGTRLLVRP
notes: In the assays the TCR stood as an alpha/beta heterodimer on transduced human T cells whose endogenous TCR was knocked out; also called cTCR 11C/34; TCR 11C/34
B2: chimerized TCR construct 11C/25 (TCR, V domains shown)
V domain 1: EAQVTQNPRYLITVTGKKLTVTCSQNMNHEYMSWYRQDPGLGLRQIYYSMNVEVTDKGDVPEGYKVSRKEKRNFPLILESPSPNQTSLYFCASSLSPAPPSIWSYNEQFFGPGTRLTVLE
V domain 2: AQSVTQLDSQVPVFEEAPVELRCNYSSSVSVYLFWYVQYPNQGLQLLLKYLSGSTLVKGINGFEAEFNKSQTSFHLRKPSVHISDTAEYFCAVSKLAGRRALTFGSGTRLQVQP
notes: In the assays the TCR stood as an alpha/beta heterodimer on transduced human T cells whose endogenous TCR was knocked out; also called cTCR 11C/25; TCR 11C/25

Experiments:
[1] = molecular target: T1, human PD-L1 (Programmed death-ligand 1) (human, UniProt Q9NZQ7 19-290); test: IFNg-ELISPOT with TCR-transduced T cells and blocking anti-PD-L1 antibodies; binding inferred from recognition
T1 construct: No signal peptide limits are stated; also called CD274; B7-H1

full-length murine PD-L1 = molecular target: T2, full-length murine PD-L1 (murine, UniProt Q9EP73 19-290); test: IFNg-ELISPOT; TCR-transduced T cells on 293T B2M/CIITA knockout cells transfected with full-length murine PD-L1
T2 construct: whole, on cells; also called mPD-L1; murine homologue of PD-L1

[2] = molecular target: T1, human PD-L1 (Programmed death-ligand 1); test: IFNg-ELISPOT on 293T B2M/CIITA knockout cells transfected with full-length or single-domain PD-L1 constructs; binding inferred from recognition

T2 sequence (Q9EP73 19-290): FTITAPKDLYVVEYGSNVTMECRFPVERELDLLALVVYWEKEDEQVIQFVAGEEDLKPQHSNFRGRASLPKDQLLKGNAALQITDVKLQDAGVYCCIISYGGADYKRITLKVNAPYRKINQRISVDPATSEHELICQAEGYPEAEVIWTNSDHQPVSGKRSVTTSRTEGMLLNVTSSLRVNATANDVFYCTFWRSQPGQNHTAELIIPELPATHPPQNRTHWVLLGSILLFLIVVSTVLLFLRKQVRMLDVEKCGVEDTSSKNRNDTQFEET
T1 sequence (Q9NZQ7 19-290 limits assumed): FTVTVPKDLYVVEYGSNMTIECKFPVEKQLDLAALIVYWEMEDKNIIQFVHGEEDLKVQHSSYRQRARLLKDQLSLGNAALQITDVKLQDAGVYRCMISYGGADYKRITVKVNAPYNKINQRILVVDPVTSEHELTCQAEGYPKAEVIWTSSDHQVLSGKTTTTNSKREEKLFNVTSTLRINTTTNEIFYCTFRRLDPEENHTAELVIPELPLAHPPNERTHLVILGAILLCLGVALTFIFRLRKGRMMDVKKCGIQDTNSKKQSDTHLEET

| Binder | binding result [1] | binding result (full-length murine PD-L1) | binding result [2] |
| --- | --- | --- | --- |
| B1 | binds | no binding | – |
| B2 | – | no binding | binds |
